This note sets out measurements from PMC11722443.

This assay deals with Paxillin (PXN) N-domain, residues 1-311 (human) (UniProt P49023). Briefly: NMR titration.

In turn, “Focal adhesion targeting (FAT) domain of focal adhesion kinase (FAK) (domain or fragment)” had an effective KD of the LD2 motif of 7 mM.
